Consider one molecule from patent US5786328, “Use of kunitz type plasma kallikrein inhibitors” (Genentech, Inc., dated 1998).

What all share (test): cell-based or functional assay
The target of experiment [1] is T1, Human Factor XIIa (human, UniProt P00748).
T1 sequence 1: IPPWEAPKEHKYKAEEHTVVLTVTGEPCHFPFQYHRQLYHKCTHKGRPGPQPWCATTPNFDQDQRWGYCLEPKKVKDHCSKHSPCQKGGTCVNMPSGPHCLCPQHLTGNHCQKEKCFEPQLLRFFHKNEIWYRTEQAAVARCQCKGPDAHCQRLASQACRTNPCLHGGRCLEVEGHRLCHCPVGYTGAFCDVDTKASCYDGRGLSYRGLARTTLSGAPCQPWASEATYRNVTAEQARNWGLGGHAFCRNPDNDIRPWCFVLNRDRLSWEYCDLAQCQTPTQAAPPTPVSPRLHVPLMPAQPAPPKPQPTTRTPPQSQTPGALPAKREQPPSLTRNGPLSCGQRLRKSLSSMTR
T1 sequence 2: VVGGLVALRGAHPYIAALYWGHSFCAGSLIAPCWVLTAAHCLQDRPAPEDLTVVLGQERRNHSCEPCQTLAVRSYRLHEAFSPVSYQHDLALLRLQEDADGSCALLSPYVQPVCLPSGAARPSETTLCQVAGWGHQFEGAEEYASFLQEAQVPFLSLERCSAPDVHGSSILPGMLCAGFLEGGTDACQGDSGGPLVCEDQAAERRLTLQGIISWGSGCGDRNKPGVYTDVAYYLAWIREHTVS

Experiment [2] has as its target Human Factor Xa (human, UniProt P00742).
Experiment [3] addresses Human thrombin (human, UniProt P00734).
The target in experiment [4] is Human plasmin (human, UniProt P00747).
For experiment [5], the target named is Human activated protein C (human, UniProt P04070).

Where no end group is shown, it is not given here.

B1: APPI (Alzheimer's amyloid β-protein precursor inhibitor) (other)
chain: VREVCSEQAETGPCRAMISRWYFDVTEGKCAPFFYGGCGGNRNNFDTEEYCMAVCGSA
modifications: not fully specified (bridges); ends and bridges not checked
With B1, the “fraction of remaining proteolytic activity with 100 nM inhibitor” value in experiment [1] is 0.97 fraction of uninhibited rate; in experiment [2], 0.89 fraction of uninhibited rate; in experiment [3], 0.92 fraction of uninhibited rate; in experiment [4] it was 0.62 fraction of uninhibited rate; in experiment [5], 0.87 fraction of uninhibited rate.
